Source: publication PMC3150272, “Crystal Structure of Reovirus Attachment Protein σ1 in Complex with Sialylated Oligosaccharides” (PLoS Pathogens, 2011)

Target: the molecule itself
Assay: crystal structure; crystals grown in 15% PEG200, 0.1 M MES pH 6.5; space group P2(1)2(1)2, one trimer in the asymmetric unit; soaked with 10 mM α-2,3-sialyllactose, α-2,6-sialyllactose or α-2,8-disialyllactose

B1: reovirus type 3 Dearing (T3D) attachment protein σ1, body and head domains (residues 170-455), Ile249 (domain or fragment)
chain: VTSAGAPLSIRNNRMTMGLNDGLTLSGNNLAIRLPGNTGLNIQNGGLQFRFNTDQFQIVNNNLTLKTTVFDSINSRIGAIEQSYVASAVTPLRLNSSTKVLDMLIDSSTLEINSSGQLTVRSTSPNLRYPIADVSGGIGMSPNYRFRQSMWIGIVSYSGSGLNWRVQVNSDIFIVDDYIHICLPAFDGFSIADGGDLSLNFVTGLLPPLLTGDTEPAFHNDVVTYGAQTVAIGLSSGGAPQYMSKNLWVEQWQDGVLRLRVEGGGSITHSNSKWPAMTVSYPRSFT
notes: The His6-tagged GCN4 trimerization domain was removed by trypsin before the final purification and crystallization; also called T3D σ1; reovirus attachment protein σ1; source: E. coli Rosetta 2 DE3, purified (Ni-IMAC, on-column trypsin digestion, Superdex-200 SEC); not shown: His6, N-terminal, cleaved; GCN4 trimerization domain (modified GCN4 leucine zipper), N-terminal, cleaved
- stoichiometry N: 3
